Test results taken from patent publication US20210047435A1 (Janssen / Centocor, published 2021).

Biological target: T1, LTBR (form used for the KD not stated) (human, UniProt P36941 31-227, limits assumed)
T1 construct: neither the method nor the LTBR construct is described; also called human LTBR; TNFRSF3
Assay: method not stated; stapled scFv variant against LTBR

T1 sequence (P36941 31-227 limits assumed): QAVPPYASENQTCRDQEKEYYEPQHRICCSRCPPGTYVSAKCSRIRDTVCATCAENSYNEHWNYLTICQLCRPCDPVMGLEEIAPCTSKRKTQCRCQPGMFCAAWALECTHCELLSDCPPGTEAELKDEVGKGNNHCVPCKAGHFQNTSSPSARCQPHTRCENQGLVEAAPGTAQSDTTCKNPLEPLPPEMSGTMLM

Row | Binder | Kd [nM]
1 | stapled scFv (VL3 Y36F S49Y F87Y) BHA10 (VH-VL) (scFv) scFv: QVQLVQSGAEVKKPGSSVKVSCKASGYTFTTYYLHWVRQAPGCGLEWMGWIYPGNVHAQYNEKFKGRVTITADKSTSTAYMELSSLRSEDTAVYYCARSWEGFPYWGQGTTVTVSSGGGSGGGSGCPPCGGGGDIQMTQSPSSLSASVGDRVTITCKASQNVGINVAWFQQKPGKAPKSLIYSASYRYSGVPSRFSGSGSGTDFTLTISSLQPEDFATYYCQQYDTYPFTFGCGTKVEIK | ~60
2 | stapled scFv (VH CDR1 Y33A) BHA10 (VH-VL) (scFv) scFv: QVQLVQSGAEVKKPGSSVKVSCKASGYTFTTYALHWVRQAPGCGLEWMGWIYPGNVHAQYNEKFKGRVTITADKSTSTAYMELSSLRSEDTAVYYCARSWEGFPYWGQGTTVTVSSGGGSGGGSGCPPCGGGGDIQMTQSPSSLSASVGDRVTITCKASQNVGINVAWYQQKPGKAPKSLISSASYRYSGVPSRFSGSGSGTDFTLTISSLQPEDFATYFCQQYDTYPFTFGCGTKVEIK | ~600
